Data set [1] has as its system human breast cancer cell line MDA-MB-157. As to the kind of experiment: ADCC activity, chromium-51 release. The settings on record: 1 μg antibody, mouse lymphocytes 2×10^5 cells, 10^3 target cells, 4 hours. It counts as cell-based. As for the experimental part:
(§1) The above-selected anti-CAPRIN-1 monoclonal antibodies #1 to #11 were evaluated for their cytotoxic activities against cancer cells (ADCC activity). Hybridomas producing the monoclonal antibodies #1 to #11 were each cultured using hybridoma SFM medium (Invitrogen). The thus obtained supernatant was purified using Hitrap ProteinA Sepharose FF (GE HealthCare), replaced with PBS(−), and then filtered through 0.22 μm filter (Millipore). The obtained filtrates were used as antibodies for assay. The human breast cancer cell line MDA-MB-157 (10^6 cells) was collected in a 50-ml centrifuge tube, to which 100 μCi chromium(Cr)-51 was then added, and incubated at 37° C. for 2 hours. Subsequently, the cells were washed 3 times with RPMI1640 medium containing 10% FBS, and then dispensed into each well of a 96-well V-bottom plate at 10^3 cells per well. The thus obtained cells are used as target cell. The above purified antibodies (1 μg each) were added to the cells. Separately, mouse lymphocytes separated from the mouse spleen were further added (2×10^5 cells) and then cultured under conditions of 37° C. and 5% CO2 for 4 hours. After culture, the amount of chromium(Cr)-51 released from cytotoxically impaired tumor cells in a culture supernatant was measured, so that the ADCC activity of each anti-CAPRIN-1 antibody against cancer cells was calculated. […] On the other hand, similar procedures were performed using the monoclonal antibodies (which were prepared in Example 2) reactive with the CAPRIN-1 protein itself, but not reactive with the surface of cancer cells, no cytotoxic activity was observed (see FIG. 1). […] Similarly, the anti-CAPRIN-1 antibodies were examined for ADCC activity against other human cancer cell lines including glioma cell lines (T98G and U373), lung cancer cell lines (A549 and QG56), renal cancer cell lines (Caki-1 and ACHN), a uterine cervix cancer cell line (SW756), a bladder cancer cell line (T24), an esophageal cancer cell line (KYSE180), gastric cancer cell lines (MNK28 and MNK45), a colorectal cancer cell line (SW480), a leukemia cell line (AML5), and a lymphoma cell line (Ramos).

Data set [2] relates to AML5. Briefly: ADCC activity, chromium-51 release. It is filed as cell-based, human. The settings on record: leukemia cell line. The procedure:
as §1

The subject of data set [3] is KYSE180. As to the kind of experiment: ADCC activity, chromium-51 release. It counts as cell-based, human. The following applies: esophageal cancer cell line. As for the experimental part:
as §1

In data set [4] the test system is Ramos. Briefly: ADCC activity, chromium-51 release. It counts as cell-based, human. The following applies: lymphoma cell line. The procedure: as §1
For data set [5], the system named is SW480. Briefly: ADCC activity, chromium-51 release. It is filed as cell-based, human. The following applies: colorectal cancer cell line. The procedure:
as §1

Data set [6] relates to SW756. As to the kind of experiment: ADCC activity, chromium-51 release. The following applies: uterine cervix cancer cell line. It counts as cell-based, human. As for the experimental part:
as §1

The subject of data set [7] is T24. Briefly: ADCC activity, chromium-51 release. It counts as cell-based, human. The following applies: bladder cancer cell line. The procedure: as §1
In data set [8] the test system is MCF-7 human breast cancer cell line. As to the kind of experiment: In vivo combination therapy in tumor-bearing nude mice transplanted with MCF-7. The settings on record: experimental section 2 (anti-CAPRIN-1 antibody = #9, 5 mg/kg i.p.), day 26, mouse PBMC given to all groups. As for the experimental part: IgG2b (R&D systems, catalog No. MAB11291)) were administered in combination, a group to which an antitumor agent and anti-CAPRIN-1 monoclonal antibody were administered in combination, and a group to which control (PBS(−) was administered. In addition, mouse PBMC was administered to all the administration groups. […] PBMC separated from Balb/c mouse spleen was intravenously administered to each mouse at 1×10^7 cells/0.2 mL (RPMI1640) on days 0, 8, and 15 after the start of the experiment. […] PBMC separated from Balb/c mouse spleen was intravenously administered to each mouse at 1×10^7 cells/0.2 mL (RPMI1640) on days 0, 8, and 15 after the start of the experiment. Paclitaxel was intraperitoneally administered to each of 5 tumor-bearing mice at 15 mg/kg/shot on days 0 and 3 after the start of the experiment. PBMC separated from Balb/c mouse spleen was intravenously administered to each mouse at 1×10^7 cells/0.2 mL (RPMI1640) on days 0, 8, and 15 after the start of the experiment. Docetaxel was intraperitoneally administered to each of 5 tumor-bearing mice at 10 mg/kg/shot on days 0 and 3 after the start of the experiment. PBMC separated from Balb/c mouse spleen was intravenously administered to each mouse at 1×10^7 cells/0.2 mL (RPMI1640) on days 0, 8, and 15 after the start of the experiment. […]

B1: monoclonal antibody #9: mouse anti-CAPRIN-1 monoclonal antibody; heavy chain variable region SEQ ID NO: 103, light chain variable region SEQ ID NO: 107 (antibody, listed as Mus musculus, V domains shown)
VH: PRASLGVSETLLCTSGFTFTDYYMSWVRQPPGKALEWLGFIRNKANGYTTEYSASVKGRFTISRDNSQSILYLQMNTLRAEDSATYYCARANWAFDYWGQGTTVTVSSK
VL: SGDRVSLSCRASQSISNYLHWYQQKSHESPRLLIKYASQSISGIPSRFSGSGSGTDFTLSINSVETEDFGMYFCQQSNSWPYTFGGGTKLEIKQ
Consider B1, for which the “ADCC activity (cytotoxic activity) against MDA-MB-157” value in data set [1] is reported as 32.4%. For the same molecule, the “ADCC activity against AML5” value in data set [2] was no less than 10%. Further, the “ADCC activity against KYSE180” value in data set [3] was no less than 22%. The “ADCC activity against Ramos” value in data set [4] was no less than 10%. Besides, the “ADCC activity against SW480” value in data set [5] is recorded as no less than 17%. In data set [6], the “ADCC activity against SW756” value is listed as no less than 16%. Also, in data set [7], the “ADCC activity against T24” value is no less than 18%. In addition, the “tumor volume relative to PBS(−) control group designated at 100%” value in data set [8] is “about 45%”.

Values taken from patent US9180187B2, “Medicament for treating and/or preventing cancer” (TORAY INDUSTRIES, INC., priority 2010, dated 2015).
